This experiment deals with T1, B-Myb negative regulatory domain NRD^440–600 (human, UniProt P10244-1 440-600).
T1 construct: human B-Myb (MYBL2), negative regulatory domain, amino acids 440 to 600; source: E. coli, purified (Glutathione Sepharose, Q-sepharose, TEV cleavage, Superdex-75); not shown: GST, N-terminal, cleaved
The experiment in a line: ITC; DBD (500 μM) titrated into NRD (50 μM) at 19 °C; 150 mM NaCl, 20 mM Tris, 1 mM BME (pH 8); MicroCal VP-ITC; mean of three technical replicates. The following applies: both partners purified.

T1 sequence (P10244 440-600): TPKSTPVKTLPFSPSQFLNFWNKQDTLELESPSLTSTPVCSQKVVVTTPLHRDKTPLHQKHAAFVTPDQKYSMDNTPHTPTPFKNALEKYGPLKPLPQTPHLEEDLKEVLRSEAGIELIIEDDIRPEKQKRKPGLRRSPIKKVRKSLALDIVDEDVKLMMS

B1: B-Myb DNA-binding domain (B-Myb^34–183) (domain or fragment)
chain: not shown
notes: Limits 34-183 are printed for 'the DBD alone' in the FP experiment; also called DBD; B-Myb DBD; source: E. coli, purified (Glutathione Sepharose, Q-sepharose, TEV cleavage, Superdex-75); not shown: GST, N-terminal, cleaved
Molecule B1 gave an equilibrium dissociation constant (Kd) of 4.5 µM.

These data come from article PMC9478404, “Cyclin-dependent kinase-mediated phosphorylation and the negative regulatory domain of transcription factor B-Myb modulate its DNA binding” (The Journal of Biological Chemistry, 2022).
